Assay: soluble on expression in E. coli; label from the status in PepcDB or PDB records

Q: For “MGGSHHHHHHGMASALQRVSGLLSWTLSRVLWLSGLSEPGAARQPRIMEEKALEVYDLIRTIRDPEKPNTLEELEVVSESCVEVQEINEEEYLVIIRFTPTVPHCSLATLIGLCLRVKLQRCLPFKHKLEIYISEGTHSTEEDINKQINDKERVAAAMENPNLREIVEQCVLEPD”, which “soluble on expression in E. coli” value is on record?
A: not soluble

Q: Which “soluble on expression in E. coli” value does the source give for “VRAPVTKVHGGAGSAQRMPLCDKCGSGIVGAVVKARDKYRHPECFVCADCNLNLKQKGYFFVEGELYCETHARART” here?
A: soluble

Q: For “MGSDKIHHHHHHMATLSDFNRDGKRYVALNGVGDDQDQSILFDHVSSYDLIRSFVDANCNWSRVLESRKNQWKPSILPEADGLAYNPPGKPEDIRNCTVSAFGNTHKTINNSLSSQKDVDWFYKGNGTTVIGTDHPLISNLNSYGCGIEIEYAAVFMINAAGDPVYIGYTIANDFSDAEMRRRMPSLANLSKLATTSFGRFLFLAPIPTKTEIACTILRHGKPAWRVNGQLGSEAMKYSFSYLNELLFQNQSIKGDAYTIHYMLLGASISSNKAEFDMKHSDIILVHDEDNNVILRNEYIDEAIVCACC”, which “soluble on expression in E. coli” value is on record?
A: not soluble

Q: Which “soluble on expression in E. coli” value does the source give for “FCGRARVHTDFTPSPYDTDSLKLKKGDIIDIISKPPMGTWMGLLNNKVGTFKFIYVDVLS” here?
A: soluble

Q: Which “soluble on expression in E. coli” value does the source give for “DPDTRIPVINLEDGTRLVGEDAPKNKDLVEWLKLHPTYTVDMPSYVPKNADVLFSSFQKPKQKRHRCRNPNKLDINTLTGEERVPVVNKRNGKKMGGAMAPPMKDLPRWLEENPEFAVAPDWTD” here?
A: soluble

Q: For “AMLPHGLIVSCQALPDEPLHSSFIMSKMALAAYEGGAVGIRANTKEDILAIKETVDLPVIGIVKRDYDHSDVFITATSKEVDELIESQCEVIALDATLQQRPKETLDELVSYIRTHAPNVEIMADIATVEEAKNAARLGFDYIGTTLHGYTSYTQGQLLYQNDFQFLKDVLQSVDAKVIAEGNVITPDMYKRVMDLGVHCSVVGGAITRPKEITKRFVQVMED”, which “soluble on expression in E. coli” value is on record?
A: soluble

Q: Which “soluble on expression in E. coli” value does the source give for “MGSDKIHHHHHHMSNQFMFADETSQQTTKLPTEYWKILIVDDEPEVHAVTKLALNDFNFLGRGLKFYSAFSGEEAKRLIDEHPDAAILLLDVVMETDDAGLQVARYIREEADNHFTRIILRTGQPGQAPERTVIVNYDINDYKSKTELTAQKLFTAVMSSLRSYRDIMSIDQSRHGLEKIIAASANLYALQPMNSFVDGLVQQLSWVIGGAKQTLYATSNEDGSSYKVLAAHGEDSGVCVGQTLRSVIPSKALAELEHVIANHGSYYGDDFVLLYCRSHCRSHGSVLFIGGLSRALTADDHHVLQLFSENVQLAQDNVVCLEDSDQFLARLADQLMLHHASHFNGILEQNSEVRLAYAVAQKVAAEDAETTALAWSLFAQARPLLNCASDAAAAVETTCQQRVARSLRALGHGEHEATQNAHRALIERLERWDGLGLPEGKQGSDIAISTQVLLLTEQLLDWWESGISDSDIAVRLKDERGRYYSPKFLDVVIKSLPELRTI” here?
A: not soluble

Q: With “MSTNLNIEVSINLTEIDVNAQLAEFARFQQVRDDSRYAQDVEREFVLGPIRHHRRQLEPSRSAPLASTEQPVAQATTHPSTENARVPALVLRSGSWRALPVAQGGSSHIRIWPVSRSATTTSTATRHPPFTNTSASTSFAPYQRHRGSALQTSECTICFEKPVDPRGCPKCLKVIGCKKCVKKWFDTSASKACPLCRFEWKLHRDNPDVVKISTLEVLKRQKQNRP” as the sequence, how does the “soluble on expression in E. coli” value read?
A: not soluble

Q: Which “soluble on expression in E. coli” value does the source give for “MHLSSSLLLVAAALFALPDGTFECATNGLCGYQPSCAAYSQPRPSCGCASSYGCGSYGCYRLRARGAKSYQPKRGRSRVTVGGSSSEEAREVLRQRMAMERVRRKEQLTSSEELDLVSPSVLRNSKSEQPINPDRAFYECCIDRKLPDACLSKCSFGAFTKPTLQAMYFKQDPCPLDAMKEMQFCAAQGRDHRDCCARNGVTTTLAGPKCLSFCDQRLGRNQQLDMSYVPCFDRFESMKSCFWHDMTRYYKRV” here?
A: not soluble

Q: Which “soluble on expression in E. coli” value does the source give for “MENQTTDLENMVGASRAGLTRRGFISAGALCGAAMFLGGNILSRTVLANSVSAASGALLGFESIPTATADSISLPKGYTSSVLISWGQPLQANGPAFDPSGKGTAQAQEVQFGDNNDGMCLFPMPGHKDRALMAINNEYTNYRYLFDHGKEPQSAEEVQKALAAEGVSVIEVQQKQGKWQFVQDSRYNRRVHGNTPIKLSGPAAGHDWLKTDADKGGTHALGTFQNCSSGQTPWGTYLTCEENFTDCFGSSNPEQKFDAGMKRYGVVAASKEINWHPHDPRFDVAKNPNEVNRHGWVVEIDPFDPKSTPVKRTALGRFKHENAAFTQTKGGRAVVYMGDDERGEFIYKFISRDKIDHQNPKANRDLLDHGTLYVAQFDAGDSNPDHPKGKGQWIELTHGKNGLDAAASFNNQAEVLIHARLAASVVKATRMDRPEWIVVSPKDGQVYCTLTNNIKRGDEGQPVGGPNPRAKNQYGQILRWSEEGSNASAMAFDWDLFVVAGNPAVHAGTPQAGSSNINAQNMFNSPDGLSFDEAGRLWIQTDGDSSNKGDFAGMGNNQMLCADPASGEIRRFLVGPVGCEITGISFAPDYKTMFIGIQHPGENGGSTFPEHLPNGKPRSSVMVITREDGGVIGALEHHHHHH” here?
A: soluble

Q: With “MDFYYLPGSAPCRAVQMTAAAVGVELNLKLTNLMAGEHMKPEFLKLNPQHCIPTLVDEDGFVLWESRAIQIYLVEKYGAHDADLAERLYPSDPRRRAVVHQRLFFDVAVLYQRFAEYYEPQIFGQKVPVGDPGRLRSMEQALEFLNTFLEGEQYVAGGDDPTIADLSILATIATYEVAGYDLRRYENVQRWYERTSAIVPGADKNVEGAKVFGRYFTQK” as the sequence, how does the “soluble on expression in E. coli” value read?
A: soluble

Q: Which “soluble on expression in E. coli” value does the source give for “MGSDKIHHHHHHMKKKFQLEVPGGADKVLLHTCCAPCSSAIIECLMQHGVTPVIYYCNPNIYPLEEYIIRKDECTRYAQSLGLEIIDADYDHDAWRCRMAGMEQEPERGGRCLRCFKMRLQETARYAHEHGFPVITTTLASSRWKSLEQIEEAGRYATAPYPDVTYWEQNWRKGGLSERRIAIIKEYNFYNQQYCGCEFSMRKEEKGG” here?
A: not soluble

Q: Which “soluble on expression in E. coli” value does the source give for “AMKPAQKGKTFSNVEIFDPPTNYRDPQVLYARPLELSDGTLLGTWENYSPEPPNVWFPIVKSKDGGKTWKEISKVKDTQNNWGLRYQPQLYELPRAFGKYPKGTVLCSGSSIPSDLSETLIEVYASRDKGYTWEFVSHVALGGEALPNPGLTPVWEPFLMTYKEKLILYYSDQRDNATHSQKLVHQTTTDLKKWSKVVDDTKYADYYARPGMPTVAKLPNNEYIYVYEYGGGPNPPAGSDYWFPVYYRLSKDPQKFLNKAHHQIVSNDGTTPAGSPYVVWTPYGGKNGTIVVSCGTRSEIFTNQALGDASAWKKWDVPQPTAYTRSLLTFQKDPDLLMIMGAGILPPAGGKNTVSASVVRLSEVMKS” here?
A: soluble

Q: Which “soluble on expression in E. coli” value does the source give for “MAHHHHHHMCREPYLLLSMHRLLLAAYWPDSDRLHCSEREWPLTEHSGAVPFMVESANGRVLPWCPWRDNSVAELLAVVRGMMELAGMKLGIVVGDRLVPD” here?
A: soluble

Q: With “MSRESTVREWRTRVPRYRLLGGRCSDCGRSFYPPAKACPYCGSRNVAETELPRVGRLEAYTVLYSVESGARDRSPVVIGLVDLGVAKVVSEIVDVSDPESLERGVQVEAVFRRIYEDGDEGVIVYGVKFRPKA” as the sequence, how does the “soluble on expression in E. coli” value read?
A: not soluble

Q: With “MGSDKIHHHHHHMDDQLNALRDLAIPFPITASFRQQARAYASQYFTQDTHERVYLNTLAVLVANAYFRLLNFQTNLTKAERWNAACRVWSEANEIELVGLGNLECRVITAGQQTIILPPETWADRIGYLFVEITSSEKVATLIGFLPAFDAETSGEEVAISTTGYAYADLKSMDEAMDYLTQQEASARSKTGEIDNLTRDFAAKKITYLRNWLNNVYDSDWEPAMRELSAATCKKKIQLVGQVFEMQLSVSQSNGAITVTVIVRLESGFLPIGIQVSVPDESEIYTETVSTPADLIRIPLEFSPGEEFWVELRWGETFTREYFIA” as the sequence, how does the “soluble on expression in E. coli” value read?
A: not soluble

Q: Which “soluble on expression in E. coli” value does the source give for “MEIDGGPPPFCGVAVDDSYDKSEQHEYDEVDDSPDSTSLPLPSASRSRSVTPVKDMAAGHEAVPEASDNNEKGDTMTTALSQDEFTGFQNSEIQKEEDDDDDEWGDFGEAVVAAAPIQARPQSPPPSLKMDGFNNEDDDDDDDWGAFDQARPSTDRTESSPNSSRSQEARHQQSLDEWGAFENSNDLKANGDEWQAEFSSASDVPPPPSDTVLENLELLDEMLENVEFWHDGFQEECREEEESPEMDVVDIPALFDSENLVEMVNSFEVERQRDSRLWLSLRLVEEAISLKFDWNNSEIRKNHLKSLKINPVTAKKEPRAMNSFFDTSNLLLPTPIQATTTSSSTESSHDSSATATNPKTSSSSPPSSVIDSPSVPAVDFDWDTSGLTNPMNRASKHLHELSKKCRNLVCSVSTNCINLLKCC” here?
A: not soluble

Q: With “MRIALLVKQARLQQGVRQIDLAERLGITLRTFRRIEAGSADGVSLRDFMLVVWGLGVSERLFQGLRDDESFSVEQLEAADRKRVRLPRNRPEDF” as the sequence, how does the “soluble on expression in E. coli” value read?
A: not soluble

Q: Which “soluble on expression in E. coli” value does the source give for “MPNDLPLLPPKNQHKHLDKTMISLPSDFRHLAHVGPMGSSEIENLRTSDNVIDTVNESSYYIRPSSSNSTLRSQRKEKDRVGLDDAFPSASKSEEEVEVVRGYENQPTSHQYINIAPPRPSKKNYKAPAPPTPPPQNSKPNLIFNAQDDEEETSEISEQPVVFRSISHTSNISTHIAPPPKIQTADRIVAPKPNSLVIERPGDLGGAFSFGLDDCIPIVKSTPPLNTLSPLHRPLAIPKNQEETPILSPASPPDDSNYMSTIRSTSVQGRKILDELDDWLDDLDDLDRDQLSTISTDESGYPTLALEKDRAFMKHLVEKYELGVAPETIRLRKKKGPAPKAPSLPPDLSSPTFQAPGFIPAFSARPVSMPPNRPPPSYEAPSFDAPEAPGTVLINGRALTKQNALDLRSSDESGVPPAIARFLYDKRIKSATMPMSIGRMTSSSGNTDVSTTSSRSNADTVSSILSTVGEDDDVEVLKRDREVEEEFVPPVPKPRSRKTVSTEPLKEEEEENVEEEIKGENVIGEEFQVVGDTKINDEQEDRVEATKDKINDAFIMLPPPSAAAMIPSDSESEDDDNFIITRF” here?
A: not soluble

Q: Which “soluble on expression in E. coli” value does the source give for “MHHHHHHSSGVDLGTENLYFQSMARPATVLGAMEMGRRMDAPTSAAVTRAFLERGHTEIDTAFVYSEGQSETILGGLGLRLGGSDCRVKIDTKAIPLFGNSLKPDSLRFQLETSLKRLQCPRVDLFYLHMPDHSTPVEETLRACHQLHQEGKFVELGLSNYAAWEVAEICTLCKSNGWILPTVYQGMYNAITRQVETELFPCLRHFGLRFYAFNPLAGGLLTGKYKYEDKDGKQPVGRFFGNTWAEMYRNRYWKEHHFEGIALVEKALQAAYGASAPSMTSATLRWMYHHSQLQGAHGDAVILGMSSLEQLEQNLAAAEEGPLEPAVVDAFNQAWHLVAHECPNYFR” here?
A: soluble

Q: With “MADRKLVVVFGATGAQGGSVARALLEDGTFRIRVVTRNPEQRAAKELKQQGAEVVRGDQDDAASMELALAGAHATFIVTNYWETCSQDREVQQPHQWDQVFKQGKLLADLAKRLGLHYVVYSGLENIRKLTAGKLAAGHFDGKGEVEEYFRDIGVPMTSVRLPCYFENLLSYFLPQKAADGKSFLLDLPMGDVPMDGMSVSDLGPVVLSLLKKPEEYVGQNIGLSTCRHTAEEYAALLSKHTGKAVHHAKTTPEDYEKLGFQGAQDLANMFRFYTLKPDRNIHLTLRLNPKAQTLDQWLEQHKGDFAQL” as the sequence, how does the “soluble on expression in E. coli” value read?
A: soluble

Q: Which “soluble on expression in E. coli” value does the source give for “MGSDKIHHHHHHVALAIPQIHAHEHSDEQLMQRYAQGDSQAFEQLYLKHKGALYRYFVRQLGDKQLAEDLYQETWGRVIRAAVNYQVSAKFSTWLYRIAHNLLIDHVRAVKPVDFIASDTDVTGLDTFEGCDQDKPDIHWQEAQKSLLLKTCISLLPQVQKEAFILNIEMGFTAAMISDIAGVTLEATKSRIRYAYQSLKECVNAKWQEAGHE” here?
A: not soluble

Q: For “PSFSFGGITPVSLQRSSMELISVQAVKHPKLLLYLSERGLQPSDASPFLSEVYYKVSRKCFFALGFPNDAGGWELRNPYFKGCFAPKAITTIKGTDSHKLLLFEGFMDFLSWRKLHPEGQAESIILNSLTLLPKLMPTLHPYPMIESLLDNDEAGDRATKQLIDAGLPVKDMRACYAPYKDINEYLTLAEQRKKILTPHKRGLRR”, which “soluble on expression in E. coli” value is on record?
A: not soluble
